Data as given in US20120316071A1 (published 2012).

T1: rHuman Erythropoietin R/Fc Chimera, CF (R&D Systems Cat#963-ER) (human, UniProt P19235 25-250)
T1 construct: Bought recombinant protein; also called EPO R; EPO R/Fc; Fc part of the bought chimera not given
T1 sequence (looked up): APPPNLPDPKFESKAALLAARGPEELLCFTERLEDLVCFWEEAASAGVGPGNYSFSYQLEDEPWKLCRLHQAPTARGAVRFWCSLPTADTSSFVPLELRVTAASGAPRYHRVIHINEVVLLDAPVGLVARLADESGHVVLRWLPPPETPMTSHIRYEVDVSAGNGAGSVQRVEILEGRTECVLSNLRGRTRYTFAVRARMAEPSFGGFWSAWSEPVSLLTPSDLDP

T2: rHuman Erythropoietin R/Fc Chimera, CF (R&D Systems Cat#963-ER) (human, UniProt P19235 25-250)
T2 construct: Bought recombinant protein; also called EPO R/Fc; Epo R; Fc part of the bought chimera not given
T2 sequence (looked up): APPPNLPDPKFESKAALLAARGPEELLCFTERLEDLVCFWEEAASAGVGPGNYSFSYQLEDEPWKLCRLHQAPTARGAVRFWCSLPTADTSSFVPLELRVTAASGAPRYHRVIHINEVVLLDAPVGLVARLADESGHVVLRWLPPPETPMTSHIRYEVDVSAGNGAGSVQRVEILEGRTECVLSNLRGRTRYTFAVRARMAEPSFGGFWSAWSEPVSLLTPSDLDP


How the values were obtained:
[1] = molecular target: T3, rHuman EGF R/Fc Chimera, CF (R&D Systems Cat#344-ER) (human, UniProt P00533 25-645); assay: ECL multispot (MSD), antigen spotted on plate, Fab at 50.00 (column head: Fab [µM])
T3 construct: Bought recombinant protein; Fc part of the bought chimera not given

[2] = molecular target: T4, rHuman P-Cadherin/Fc Chimera, CF (R&D Systems Cat#861-PC) (human, UniProt P22223 108-654); assay: as above
T4 construct: Bought recombinant protein; Fc part of the bought chimera not given

[3] = molecular target: T5, rHuman IGF-1 sR (insulin-like growth factor-1 soluble receptor), CF (R&D Systems Cat#391-GR) (human, UniProt P08069 31-932); assay: as above
T5 construct: Bought recombinant soluble receptor

[4] = molecular target: T6, rHuman CD44/Fc Chimera, CF (R&D Systems Cat#3660-CD) (human, UniProt P16070 21-220); assay: as above
T6 construct: Bought recombinant protein; Fc part of the bought chimera not given

[5] = molecular target: T7, Recombinant Human DLL4 (R&D Systems Cat#1506-D4/CF) (human, UniProt Q9NR61 27-524); assay: as above
T7 construct: Bought recombinant protein; also called delta-like protein 4; rHuman DLL4

[6] = molecular target: T8, rHuman Notch-1/Fc Chimera, CF (R&D Systems Cat#3647-TK) (human, UniProt P46531 19-526); assay: as above
T8 construct: Bought recombinant chimera; Fc part of the bought chimera not given

[7] = molecular target: T1, rHuman Erythropoietin R/Fc Chimera, CF …; assay: as above
[8] = molecular target: T9, rHuman ErbB2/Fc Chimera, CF (R&D Systems Cat#1129-ER) (human, UniProt P04626 23-652); assay: as above
T9 construct: Bought recombinant protein; Fc part of the bought chimera not given

[9] = molecular target: T3, rHuman EGF R/Fc Chimera, CF (R&D …); assay: ECL multispot (MSD), antigen spotted on plate, Fab at 0.50 (column head: Fab [µM])
[10] = molecular target: T4, rHuman P-Cadherin/Fc Chimera, CF (R&D …); assay: as above
[11] = molecular target: T5, rHuman IGF-1 sR (insulin-like growth …); assay: as above
[12] = molecular target: T10, rHuman HGF R/c-MET/Fc Chimera, CF (R&D Systems Cat#358-MT/CF) (human, UniProt P08581 25-932); assay: as above
T10 construct: Bought recombinant protein; also called HGF R/Fc; Fc part of the bought chimera not given
T10 sequence (P08581 25-932, change not shown): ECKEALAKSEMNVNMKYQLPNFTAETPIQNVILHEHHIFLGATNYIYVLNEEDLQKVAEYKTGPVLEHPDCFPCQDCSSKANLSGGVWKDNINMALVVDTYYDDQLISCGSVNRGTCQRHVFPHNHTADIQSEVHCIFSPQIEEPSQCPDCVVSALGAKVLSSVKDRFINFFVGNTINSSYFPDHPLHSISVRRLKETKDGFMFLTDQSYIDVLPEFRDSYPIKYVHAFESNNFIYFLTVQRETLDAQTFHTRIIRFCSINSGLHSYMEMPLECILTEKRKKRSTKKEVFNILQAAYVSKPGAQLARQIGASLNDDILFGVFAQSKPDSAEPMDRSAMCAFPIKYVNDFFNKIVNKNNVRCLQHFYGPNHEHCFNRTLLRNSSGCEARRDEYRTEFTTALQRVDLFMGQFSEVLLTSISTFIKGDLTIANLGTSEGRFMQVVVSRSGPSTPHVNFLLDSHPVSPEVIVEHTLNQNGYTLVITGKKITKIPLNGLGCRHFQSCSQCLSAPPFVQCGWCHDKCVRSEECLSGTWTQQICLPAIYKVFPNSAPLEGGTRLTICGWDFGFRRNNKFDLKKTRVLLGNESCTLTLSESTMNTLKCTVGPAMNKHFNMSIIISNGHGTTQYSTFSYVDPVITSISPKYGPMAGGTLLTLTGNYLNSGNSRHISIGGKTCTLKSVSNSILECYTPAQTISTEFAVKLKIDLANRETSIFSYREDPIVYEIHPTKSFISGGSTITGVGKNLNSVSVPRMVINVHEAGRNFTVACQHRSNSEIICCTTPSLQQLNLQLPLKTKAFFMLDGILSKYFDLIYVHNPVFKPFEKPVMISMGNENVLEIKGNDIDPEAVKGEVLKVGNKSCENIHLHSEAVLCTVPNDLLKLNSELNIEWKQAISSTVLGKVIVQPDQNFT

[13] = molecular target: T6, rHuman CD44/Fc Chimera, CF (R&D Systems …); assay: as above
[14] = molecular target: T7, Recombinant Human DLL4 (R&D Systems …); assay: as above
[15] = molecular target: T8, rHuman Notch-1/Fc Chimera, CF (R&D …); assay: as above
[16] = molecular target: T1, rHuman Erythropoietin R/Fc Chimera, CF …; assay: as above
[17] = molecular target: T9, rHuman ErbB2/Fc Chimera, CF (R&D …); assay: as above
[18] = molecular target: T11, rHuman IGF-1 sR, CF (R&D Systems Cat#391-GR) (human, UniProt P08069 31-932); assay: Multispot ECL (MSD), antigen spotted on plate, Fab 62.5 nM; blank spot 268
T11 construct: Bought recombinant soluble receptor; also called insulin-like growth factor-1 soluble receptor

[19] = molecular target: T2, rHuman Erythropoietin R/Fc Chimera, CF …; assay: as above

signal/noise ratio (ECL) [1] | signal/noise ratio (ECL) [2] | signal/noise ratio (ECL) [3] | signal/noise ratio (ECL) [4] | signal/noise ratio (ECL) [5] | signal/noise ratio (ECL) [6] | signal/noise ratio (ECL) [7] | signal/noise ratio (ECL) [8] | signal/noise ratio (ECL) [9] | signal/noise ratio (ECL) [10] | signal/noise ratio (ECL) [11] | signal/noise ratio (ECL) [12] | signal/noise ratio (ECL) [13] | signal/noise ratio (ECL) [14] | signal/noise ratio (ECL) [15] | signal/noise ratio (ECL) [16] | signal/noise ratio (ECL) [17] | ECL signal [18] | ECL signal [19] | Binder
0.9 | 0.7 | 0.5 | 0.3 | 33.5 | 0.6 | 0.9 | 0.6 | 1.4 | 1.3 | 1.2 | 0.6 | 1 | 2.9 | 2 | 0.9 | 1 | – | – | Fab VH1-46_IGHD6-6*01_IGHJ1*01 & L6_IGKJ1*01 (Fab, V domains shown, Tested as a Fab expressed in E. coli; The heavy chain came from Plasmid A (CH1 with His6 and Flag tags) and the kappa light chain from Plasmid C (kappa CL); also called Wt; wildtype) VH: QVQLVQSGAEVKKPGASVKVSCKASGYTFTSYYMHWVRQAPGQGLEWMGIINPSGGSTSYAQKFQGRVTMTRDTSTSTVYMELSSLRSEDTAVYYCAREEYSSSSAEYFQHWGQGTLVTVSS VL: not shown
– | – | – | – | – | – | – | – | – | – | – | – | – | – | – | – | – | 491 | 7750 | Fab VH1-46_IGHD6-13*01_IGHJ4*01 & B3_IGKJ1*01 (Fab, V domains shown, Germline Fab made in E. coli; VH was cloned into Plasmid A (CH1, His6 and Flag tags) and the kappa VL into Plasmid C (kappa CL)) VH: QVQLVQSGAEVKKPGASVKVSCKASGYTFTSYYMHWVRQAPGQGLEWMGIINPSGGSTSYAQKFQGRVTMTRDTSTSTVYMELSSLRSEDTAVYYCAREGYSSSWYDYFDYWGQGTLVTVSS VL: not shown
1 | 0.9 | 0.5 | 0.7 | 274 | 1.1 | 1.6 | 0.7 | 1.1 | 0.8 | 1.3 | 0.8 | 1 | 34.5 | 1.4 | 0.9 | 1 | – | – | Fab VH1-46_IGHD6-6*01_IGHJ1*01 S102A/S103P/S104F (APF) & L6_IGKJ1*01 (Fab, V domains shown, Tested as a Fab expressed in E. coli; the constant parts (CH1 with His6/Flag tags, kappa CL) come from Plasmids A and C; also called APF triple mutant; H:APF & L:wt) VH: QVQLVQSGAEVKKPGASVKVSCKASGYTFTSYYMHWVRQAPGQGLEWMGIINPSGGSTSYAQKFQGRVTMTRDTSTSTVYMELSSLRSEDTAVYYCAREEYAPFSAEYFQHWGQGTLVTVSS VL: not shown
